Test results as given in patent US20140242083A1 (Hoffmann-La Roche, published 2014).

T1: human MCSP D3 domain expression construct (C-terminal part, N-terminal FLAG-tag) in HEK-EBNA cells (human, UniProt Q6UVK1 1582-2224, limits assumed)
T1 construct: 'A similar construct' to the cynomolgus one; it is not clear whether the signal peptide and FLAG-tag are part of it; also called corresponding human expression construct; human counterpart
T1 sequence: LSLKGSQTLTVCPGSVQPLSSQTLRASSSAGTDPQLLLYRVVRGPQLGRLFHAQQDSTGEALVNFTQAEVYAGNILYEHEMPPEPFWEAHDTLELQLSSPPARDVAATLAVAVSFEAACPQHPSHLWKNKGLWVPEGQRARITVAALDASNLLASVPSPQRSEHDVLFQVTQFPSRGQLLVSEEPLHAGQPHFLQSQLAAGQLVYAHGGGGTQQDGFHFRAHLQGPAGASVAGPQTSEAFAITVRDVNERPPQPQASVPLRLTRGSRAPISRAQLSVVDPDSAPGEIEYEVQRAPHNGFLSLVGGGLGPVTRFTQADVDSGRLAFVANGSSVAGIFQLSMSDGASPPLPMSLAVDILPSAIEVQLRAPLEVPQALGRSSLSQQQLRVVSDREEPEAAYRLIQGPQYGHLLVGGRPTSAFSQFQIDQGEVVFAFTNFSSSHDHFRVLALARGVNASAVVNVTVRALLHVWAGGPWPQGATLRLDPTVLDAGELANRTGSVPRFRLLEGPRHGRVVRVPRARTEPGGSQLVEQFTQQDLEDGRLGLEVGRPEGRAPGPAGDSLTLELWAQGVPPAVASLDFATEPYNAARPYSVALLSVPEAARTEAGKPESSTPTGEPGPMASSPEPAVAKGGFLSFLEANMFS

T2: cynomolgus MCSP D3 domain expression construct (C-terminal part, N-terminal FLAG-tag) in HEK-EBNA cells (cynomolgus, UniProt Q6UVK1 1582-2224 (human entry), limits assumed)
T2 construct: Tested by flow cytometry on transfected cells; the membrane anchor is not described; also called cynomolgus construct; cynomolgus antigen
T2 chain: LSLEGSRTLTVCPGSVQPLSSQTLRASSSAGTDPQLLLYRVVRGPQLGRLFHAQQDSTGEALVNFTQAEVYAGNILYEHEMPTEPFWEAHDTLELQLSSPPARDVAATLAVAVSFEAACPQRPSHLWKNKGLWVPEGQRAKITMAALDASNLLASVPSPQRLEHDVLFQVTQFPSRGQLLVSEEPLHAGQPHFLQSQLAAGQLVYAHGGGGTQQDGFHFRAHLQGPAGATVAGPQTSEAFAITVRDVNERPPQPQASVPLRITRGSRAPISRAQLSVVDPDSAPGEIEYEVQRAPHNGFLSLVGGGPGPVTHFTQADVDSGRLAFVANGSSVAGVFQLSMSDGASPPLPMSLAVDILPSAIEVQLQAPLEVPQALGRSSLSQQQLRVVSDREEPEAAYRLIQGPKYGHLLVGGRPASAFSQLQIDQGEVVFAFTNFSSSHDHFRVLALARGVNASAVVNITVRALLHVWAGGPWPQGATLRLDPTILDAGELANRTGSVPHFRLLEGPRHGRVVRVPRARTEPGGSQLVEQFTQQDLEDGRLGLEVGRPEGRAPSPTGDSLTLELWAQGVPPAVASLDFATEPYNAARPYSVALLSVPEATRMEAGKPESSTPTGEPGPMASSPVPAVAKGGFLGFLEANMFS

T3: Construct 4 (CSPG repeat 12-15 of human MCSP) (human, UniProt Q6UVK1 1702-2246)
T3 construct: Expressed on HEK-EBNA cells; contains the original transmembrane region
T3 sequence: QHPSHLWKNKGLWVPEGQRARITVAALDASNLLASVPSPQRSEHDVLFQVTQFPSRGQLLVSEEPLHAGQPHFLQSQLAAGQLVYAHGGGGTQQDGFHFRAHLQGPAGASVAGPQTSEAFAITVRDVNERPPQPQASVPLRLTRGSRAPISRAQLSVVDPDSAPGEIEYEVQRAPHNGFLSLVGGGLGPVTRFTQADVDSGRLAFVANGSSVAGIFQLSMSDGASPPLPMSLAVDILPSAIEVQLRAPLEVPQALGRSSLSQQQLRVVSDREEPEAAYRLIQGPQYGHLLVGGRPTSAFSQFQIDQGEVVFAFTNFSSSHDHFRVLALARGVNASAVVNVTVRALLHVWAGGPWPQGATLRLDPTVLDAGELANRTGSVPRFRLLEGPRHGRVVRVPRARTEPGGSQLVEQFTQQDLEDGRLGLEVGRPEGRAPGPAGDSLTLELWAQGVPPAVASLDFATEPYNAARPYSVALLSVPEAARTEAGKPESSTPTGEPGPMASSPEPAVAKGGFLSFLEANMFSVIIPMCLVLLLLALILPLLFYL

T4: Construct 1 (CSPG repeat 15 of human MCSP with the natural transmembrane domain) (human, UniProt Q6UVK1 2044-2246)
T4 construct: Expressed on HEK-EBNA cells; contains the original transmembrane region; also called MCSP repeat 15 construct
T4 sequence: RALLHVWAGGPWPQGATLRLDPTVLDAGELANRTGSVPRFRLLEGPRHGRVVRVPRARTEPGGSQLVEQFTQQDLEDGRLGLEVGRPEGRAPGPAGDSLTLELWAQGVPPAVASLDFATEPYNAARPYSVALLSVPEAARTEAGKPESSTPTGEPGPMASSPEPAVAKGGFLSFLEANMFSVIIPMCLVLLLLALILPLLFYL

T5: Cynomolgus MCSP D3 (cynomolgus, UniProt Q6UVK1 1582-2224 (human entry), limits assumed)
T5 construct: Soluble analyte in SPR
T5 chain: T2 chain

T6: Human MCSP D3 (human, UniProt Q6UVK1 1582-2224)
T6 construct: Soluble analyte in SPR; The selection antigen was hu-MCSP(D3 domain)-avi-his; also called hu-MCSP(D3 domain)-avi-his
T6 sequence: T1 sequence

B1: chimeric antibody LC007 (antibody, human IgG1, kappa, V domains shown)
VH: EVQLQESGPGLVKPSQSLSLTCSVTGYSITSGYYWNWIRQFPGNKLEWMGYITYDGSNNYNPSLKNRISITRDTSKNQFFLKLNSVTTEDTATYYCADFDYWGQGTTLTVSS
VL: DIVLTQSPSSLSASLGDRVTISCSASQGIRNYLNWYQQRPDGTVKLLIYYTSSLHSGVPSRFSGSGSGTDYSLTISNLEPEDIATYYCQQYSKLPWTFGGGTKLEIKR
notes: all such entries are written under the chimeric antibody; also called LC007 antibody; LC007 wt
B2: M4-3 ML2 (E10/G3) (antibody, human IgG1, V domains shown)
VH: QVQLQESGPGLVKPSQTLSLTCTVSGGSITSGYYWNWIRQHPGKGLEWIGYITYDGSNNYNPSLKSRVTISRDTSKNQFSLKLSSVTAADTAVYYCADFDYWGQGTLVTVSS
VL: DIQMTQSPSSLSASVGDRVTITCRASYGIRGYLNWYQQKPGKAPKLLIYYTSSLHSGVPSRFSGSGSGTDFTLTISSLQPEDFATYHCQQYSALPWTFGQGTKVEIK

Legend:
[1] = molecular target: T7, human MCSP (melanoma chondroitin sulfate proteoglycan) on melanoma cells (human, UniProt Q6UVK1 30-2322); experiment: FACS titration on A375 melanoma cells, FITC anti-human IgG Fc secondary antibody
T7 construct: Native MCSP on the human melanoma lines Colo38, A2058 and A375; also called surface MCSP; CSPG4
T7 sequence (Q6UVK1 30-2322 limits assumed): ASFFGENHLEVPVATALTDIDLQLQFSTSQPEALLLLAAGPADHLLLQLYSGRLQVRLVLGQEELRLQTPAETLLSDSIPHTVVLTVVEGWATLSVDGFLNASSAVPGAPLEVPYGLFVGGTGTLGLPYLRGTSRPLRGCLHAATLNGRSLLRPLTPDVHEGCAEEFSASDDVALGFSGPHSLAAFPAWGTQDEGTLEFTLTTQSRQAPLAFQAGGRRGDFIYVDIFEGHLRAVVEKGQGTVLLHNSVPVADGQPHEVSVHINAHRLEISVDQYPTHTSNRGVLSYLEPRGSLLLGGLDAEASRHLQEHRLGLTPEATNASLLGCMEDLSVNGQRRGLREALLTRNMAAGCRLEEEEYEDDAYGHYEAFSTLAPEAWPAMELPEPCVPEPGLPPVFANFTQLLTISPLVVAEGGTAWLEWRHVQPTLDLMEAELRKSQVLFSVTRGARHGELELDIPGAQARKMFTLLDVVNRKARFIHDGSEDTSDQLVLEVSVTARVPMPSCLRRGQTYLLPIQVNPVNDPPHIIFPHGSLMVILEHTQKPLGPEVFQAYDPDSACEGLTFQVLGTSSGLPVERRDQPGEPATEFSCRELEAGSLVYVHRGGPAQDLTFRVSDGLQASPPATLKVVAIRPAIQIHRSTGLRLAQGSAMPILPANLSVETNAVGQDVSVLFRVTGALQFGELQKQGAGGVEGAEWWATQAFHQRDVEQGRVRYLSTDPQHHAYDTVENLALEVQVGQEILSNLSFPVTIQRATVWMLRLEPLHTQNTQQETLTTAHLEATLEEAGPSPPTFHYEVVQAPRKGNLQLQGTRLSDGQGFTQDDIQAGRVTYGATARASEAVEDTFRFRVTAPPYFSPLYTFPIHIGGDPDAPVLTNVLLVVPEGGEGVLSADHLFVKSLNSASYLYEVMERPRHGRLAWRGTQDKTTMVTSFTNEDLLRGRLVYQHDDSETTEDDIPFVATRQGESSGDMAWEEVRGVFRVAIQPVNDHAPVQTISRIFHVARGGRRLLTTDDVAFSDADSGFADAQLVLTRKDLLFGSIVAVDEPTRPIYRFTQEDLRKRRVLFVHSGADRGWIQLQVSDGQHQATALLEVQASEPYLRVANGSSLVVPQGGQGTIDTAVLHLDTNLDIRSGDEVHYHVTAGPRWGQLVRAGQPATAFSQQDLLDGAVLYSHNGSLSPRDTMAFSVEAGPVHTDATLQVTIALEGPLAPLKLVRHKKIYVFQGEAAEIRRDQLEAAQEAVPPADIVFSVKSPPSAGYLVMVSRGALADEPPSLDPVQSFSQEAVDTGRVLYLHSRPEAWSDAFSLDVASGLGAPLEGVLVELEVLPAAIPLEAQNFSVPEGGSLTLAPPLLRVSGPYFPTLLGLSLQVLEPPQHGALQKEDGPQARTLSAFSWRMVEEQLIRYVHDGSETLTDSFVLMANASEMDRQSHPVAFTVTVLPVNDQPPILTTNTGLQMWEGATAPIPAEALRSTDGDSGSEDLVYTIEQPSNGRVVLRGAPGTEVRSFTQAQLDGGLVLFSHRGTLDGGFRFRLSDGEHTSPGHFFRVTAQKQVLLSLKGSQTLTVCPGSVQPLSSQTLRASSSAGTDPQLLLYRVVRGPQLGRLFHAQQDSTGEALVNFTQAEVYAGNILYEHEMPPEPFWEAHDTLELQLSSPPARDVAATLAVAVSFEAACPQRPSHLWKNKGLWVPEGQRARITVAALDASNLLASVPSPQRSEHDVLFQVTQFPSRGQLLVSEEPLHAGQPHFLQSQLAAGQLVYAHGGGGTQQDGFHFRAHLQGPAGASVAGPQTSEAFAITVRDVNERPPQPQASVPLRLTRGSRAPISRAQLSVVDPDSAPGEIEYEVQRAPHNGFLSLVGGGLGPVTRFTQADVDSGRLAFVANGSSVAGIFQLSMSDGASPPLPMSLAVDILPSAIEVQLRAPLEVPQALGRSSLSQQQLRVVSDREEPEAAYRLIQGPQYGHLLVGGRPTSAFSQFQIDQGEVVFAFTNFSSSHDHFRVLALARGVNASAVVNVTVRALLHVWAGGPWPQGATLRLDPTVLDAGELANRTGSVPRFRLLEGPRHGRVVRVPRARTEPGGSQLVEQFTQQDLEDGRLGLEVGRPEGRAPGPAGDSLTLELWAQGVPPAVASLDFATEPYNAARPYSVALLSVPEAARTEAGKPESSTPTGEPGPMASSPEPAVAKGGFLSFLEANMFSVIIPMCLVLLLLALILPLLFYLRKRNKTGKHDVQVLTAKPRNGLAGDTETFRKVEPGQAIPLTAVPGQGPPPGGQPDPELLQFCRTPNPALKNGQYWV
Procedure: (§1) Binding activity was determined by the following method. Target cells were detached from culture flask with cell dissociation buffer, counted and checked for viability. Cells were resuspended and adjusted to 1.111×10⁶ (viable) cells/ml in PBS-0.1% BSA. 180 μl of this suspension were transferred to each well (200,000 cells/well) in a round bottom 96-well-plate, centrifuged for 4 min, at 400 g, and resuspended. 20 μl of antibody dilutions in PBS-0.1% BSA (from 10 μg/ml to […]) were added to each well. The samples were centrifuged for 4 min, at 400 g, and resuspended. Secondary antibody, FITC-conjugated AffiniPure F(ab′)2 fragment goat anti-human IgG Fcg Fragment Specific (Jackson Immuno Research Lab #109-096-098)), was added and the sample centrifuged for 4 min, at 400 g, and resuspended. Fluorescence was measured in flow cytometer (e.g. FACS Canto II). Antibody 9.2.27, described in Morgan A C Jr, Galloway D R, Reisfeld R A. Hybridoma. 1981; 1(1):27-36.; GenBank Accession Numbers: GI:20797193 and GI:20797189 for light and heavy chain respectively, was used as a reference (FIG. 2). Human melanoma cell-lines Colo38, A2058, and A375 were used. Giacomini et al. 1985 (for Colo38). Marquardt H, Todaro G J. J Biol. Chem. 1982 May 10; 257(9):5220-5 (for A2058). Geiser M, Schultz D, Le Cardinal A, Voshol H, Garcia-Echeverria C. Cancer Res. 1999 Feb. 15; 59(4):905-10 (for A375).

[2] = molecular target: T7, human MCSP (melanoma chondroitin …); experiment: FACS titration on A2058 melanoma cells, FITC anti-human IgG Fc secondary antibody
Procedure: as §1

[3] = molecular target: T1, human MCSP D3 domain expression …; experiment: flow cytometry titration of LC007 on HEK-EBNA cells expressing the construct; untreated EBNA cells as control
[4] = molecular target: T2, cynomolgus MCSP D3 domain expression …; experiment: as above
[5] = molecular target: T7, human MCSP (melanoma chondroitin …); experiment: FACS titration on Colo38 melanoma cells, FITC anti-human IgG Fc secondary antibody
Procedure: as §1

[6] = molecular target: T3, Construct 4 (CSPG repeat 12-15 of human …); experiment: FACS titration of LC007 on HEK-EBNA cells transfected with the construct; mock-transfected cells and isotype as controls
[7] = molecular target: T4, Construct 1 (CSPG repeat 15 of human …); experiment: FACS titration of LC007 on HEK-EBNA cells transfected with the construct; mock-transfected cells as control
Cynomolgus MCSP D3 = molecular target: T5, Cynomolgus MCSP D3; experiment: SPR Biacore T200, 25 C, IgG captured on anti-human Fab, MCSP D3 as analyte, 1:1 Langmuir fit
Procedure: (§2) IgGs were captured on a CM5 sensorchip surface with immobilized anti human Fab. Capture IgG was coupled to the sensorchip surface by direct immobilization of around 10,000 resonance units (RU) at pH 5.0 using the standard amine coupling kit (Biacore, Freiburg/Germany). IgGs are captured for 60 s at 30 nM with 10 μl/min. Human and cynomolgus MCSP D3 were passed at a concentration of 0.49-1000 nM with a flowrate of 30 μl/min through the flow cells over 180 s. The dissociation is monitored for 210 s. Bulk refractive index differences were corrected for by subtracting the response obtained on reference flow cell. Here, the antigens were flown over a surface with immobilized anti-human Fab antibody but on which HBS-EP has been injected rather than anti MCSP IgGs.

Human MCSP D3 = molecular target: T6, Human MCSP D3; experiment: as above
Procedure: as §2

EC50 (read off the curve) [1]	EC50 (read off the curve) [2]	EC50 (read off the curve) [3]	EC50 (read off the curve) [4]	EC50 (read off the curve) [5]	EC50 (read off the curve) [6]	binding result [7]	Kd (Cynomolgus MCSP D3)	Kd (Human MCSP D3)	Binder
~0.05 mg/L	~0.03 mg/L	~0.08 mg/L	~0.1 mg/L	~0.05 mg/L	~0.3 mg/L	no binding (tested: 5 ug/ml)	–	–	B1
–	–	–	–	–	–	–	12.2 nM	5.5 nM	B2
